In article doi:10.1101/2024.12.03.626531, “Lineage–specific amino acids define functional attributes of the protomer-protomer interfaces for the Rad51 and Dmc1 recombinases” (bioRxiv, 2024):

Molecular target: the molecule itself
Experiment: cryo-EM structure; helical filament: ScDmc1 5 µM with 0.25 µM 96-mer ssDNA in HR buffer supplemented with 1.5 mM CaCl2, 30°C for 5 minutes; 8 mM CHAPSO added before freezing

B1: S. cerevisiae Dmc1 (natural protein, UniProt P25453 1-334, looked up)
chain: MSVTGTEIDSDTAKNILSVDELQNYGINASDLQKLKSGGIYTVNTVLSTTRRHLCKIKGLSEVKVEKIKEAAGKIIQVGFIPATVQLDIRQRVYSLSTGSKQLDSILGGGIMTMSITEVFGEFRCGKTQMSHTLCVTTQLPREMGGGEGKVAYIDTEGTFRPERIKQIAEGYELDPESCLANVSYARALNSEHQMELVEQLGEELSSGDYRLIVVDSIMANFRVDYCGRGELSERQQKLNQHLFKLNRLAEEFNVAVFLTNQVQSDPGASALFASADGRKPIGGHVLAHASATRILLRKGRGDERVAKLQDSPDMPEKECVYVIGEKGITDSSD
notes: Dmc1 meiotic recombinase, Saccharomyces cerevisiae, full-length wild type; Helical filament on a 96-nt ssDNA with ATP; 6.35 monomers per turn; Expressed as 6XHis-ScDmc1; no removal of the tag is described; also called ScDmc1; yeast Dmc1; source: E. coli BL21 (DE3) Rosetta2, purified (Talon resin, heparin sepharose)
binding result: binds
